Measurements as given in patent publication US20220042996A1, “COMPOSITIONS AND METHODS RELATED TO LATROPHILINS AS BIOMARKERS FOR HAEMATOPOIETIC CELL CANCER” (priority 2015, published 2022).
Entries after “also recorded” stand apart in the source; their conditions may differ.

What was measured:
Assay type in all cases: cell-based
mTOR = assay: Phospho-S2448 mTOR ELISA in primary human AML cells; conditions: AML-PB001F cells; for mTOR activation: 24 h
Experimental: Phosphorylation of mTOR was monitored using ELISA assays as recently described (Yasinska I. M. et al (supra); Abooali M. et al (2014) Sci. Rep. 4 6307; Prokhorov A. et al (supra)). Briefly, ELISA plates were coated with mouse anti-mTOR antibodies and blocked with 2% BSA. Cell lysates were then added to the wells and kept at room temperature for at least 2 h (under constant agitation). After extensive washing with TBST buffer (Tris-Buffered Saline and Tween 20), […] mTOR antibody was added and plates were incubated for at least 2 h at room temperature with constant agitation. Plates were then washed with TBST buffer and incubated with 1:1000 Horse Radish Peroxidase-labelled goat anti-rabbit IgG in TBST buffer. After extensive washing with TBST, bound secondary antibodies were then detected by the peroxidase reaction (ortho-phenylenediamine/H2O2).
(§1) Primary human AML mononuclear cells (AML-PB001 F, newly diagnosed/untreated) were purchased from AllCells (Alameda, Calif., USA) and handled in accordance with manufacturer's instructions.
(§2) Experiments were carried out to ascertain whether or not LPHN 1 and LPHN 2 are expressed and function in primary human AML cells. AML-PB001 F primary human mononuclear blasts were used and exposed for 24 h to 1 μg/ml LPS, 500 pM LTX or a combination of these ligands.
(§3) To analyse LPHN1/2 expression levels in AML-PB001F cells, the cells were exposed to mTOR activators (1 μg/ml LPS, 0.1 μg/ml SCF or 2 μg/ml anti-Tim-3 antibody) for 4 h.

[1] = system: AML-PB001F primary human AML cells; assay: LPHN1/2 protein levels by Western blot in primary human AML cells; conditions: 4 h, 1 μg/ml LPS, 0.1 μg/ml SCF or 2 μg/ml anti-Tim-3 antibody
Experimental: (§4) Levels of LPHN 1 and LPHN 2, total and phospho-T389 p70 S6K1 were determined by Western blot analysis and compared to β-actin in order to determine equal protein loading, as described by Yasinska I. M. et al (Cell. Mol. Life Sci. (2014) 71 699-710). Li-Cor goat secondary antibodies, conjugated with fluorescent dyes, were used according to the manufacturer's protocol to visualise the proteins of interest using a Li-Cor Odyssey imaging system. Western blot data were analysed quantitatively using Odyssey software and values were normalised against respective β-actin bands.
as §1, §3

[2] = system: primary healthy human leukocytes; assay: Latrophilin protein expression by Western blot in primary healthy human leukocytes; conditions: primary leucocytes from healthy donors, 4 or 24 h exposure
Experimental: Primary AML-PB001F cells were exposed for 4 h (A) and healthy human leukocytes for 4 h (B) or 24 h (C) to indicated concentrations of LPS, SCF and anti-Tim-3. Following cell lysis, latrophilin protein levels were analysed by Western blot. Phospho-S2448 mTOR was measured by ELISA. Furthermore, non-treated THP-1 cells, primary human AML cells and primary healthy human leukocytes, as well as those stimulated for 24 h with 1 μg/ml LPS were subjected to quantitative real time polymerase chain reaction qRT-PCR (D). Images show one representative result of at least four experiments, which gave similar results. Data are mean values±SD (n=4). *-p<0.05; **-p<0.01.
as §4, with “bands. […]” for “bands.”

U937 human AML cells = assay: IL-6 release by ELISA in U937 cells; conditions: 24 h, 500 pM LTX in combination with 1 μg/ml LPS
Experimental: (§5) THP-1 and U937 human leukaemia monocytic macrophages were obtained from the European Collection of Cell Cultures (Salisbury, UK). Cells were cultured in RPMI 1640 media supplemented with 10% foetal calf serum, penicillin (50 IU/ml) and streptomycin sulphate (50 μg/ml).
(§6) Concentrations of IL-6 released into the cell culture media were analysed by ELISA (R&D Systems assay kit) according to the manufacturers protocol.
(§7) Expression of LPHN 1 and LPHN 2 in human AML cell lines—U937 and THP-1—was investigated. Cells were stimulated for 24 h with 1 μg/ml LPS, 500 pM LTX or a combination of these ligands. LPS is a pathogen-associated molecular pattern shared by Gram-negative bacteria and is recognised by the Toll-like receptor 4 (TLR4), which is highly expressed by human myeloid cells. Importantly, LPS was chosen because TLR4 may be targeted by endogenous ligands (like proteins released by dysfunctional mitochondria) to promote expression/release of IL-6 and other important cytokines/growth factors required for leukaemia cell survival.

THP-1 human AML cells = assay: IL-6 release by ELISA in THP-1 cells; conditions: 24 h, 500 pM LTX in combination with 1 μg/ml LPS
Experimental: as §5, §6, §7

[3] = system: AML-PB001F primary human AML cells; assay: IL-6 release by ELISA in primary human AML cells; conditions: 24 h
Experimental: as §6, §1, §2

[4] = 500 pM LTX in combination with 1 μg/ml LPS
[5] = 1 μg/ml LPS alone or 500 pM LTX alone

Q: Which results are given for “SCF: Human Stem Cell Factor protein produced in E. coli; binds Kit (CD117)”?
A: phosphorylation of S2448 in mTOR (mTOR activation) (mTOR; 4 h, 1 μg/ml LPS, 0.1 μg/ml SCF or 2 μg/ml anti-Tim-3 antibody): significantly increased; also recorded: strongest effect; LPHN1/2 expression [1]: significantly up-regulated; LPHN2 expression [1]: significantly up-regulated; latrophilin expression [2]: not inducible

B1: LTX (protein)
chain: EGEDLTLEEKAEICSELELQQKYVDIASNIIGDLSSLPIAGKIAGTIAAAAMTATHVASGRLDIEQTLLGCSDLPFDQIKEVLENRFNEIDRKLDSHSAALEEITKLVEKSISVVEKTRKQMNKRFDEVMKSIQDAKVSPIISKINNFARYFDTEKERIRGLKLNDYILKLEEPNGILLHFKESRTPTDDSLQAPLFSIIEEGYAVPKSIDDELAFKVLYALLYGTQTYVSVMFFLLEQYSFLANHYYEKGYLEKYDEYFNSLNNVFLDFKSSLVGTGTSNNEGLLDRVLQVLMTVKNSEFLGLEKNGVDEMLNEKINLFNKIKEEIEGKQKMTLSETPENFAQISFDKDITTPIGDWRDGREVRYAVQYASETLFSKISHWSDPVSVREKACPTLRMPVDQTRRNVLVFRKFDSSKPQLVGEITPYLSNFIDIDRDLYNAASNPDSAVGFKEFTKLNYDGANIRATFDHGRTVFHAAAKSGNDKIMFGLTFLAKSTELNQPDKKGYTPIHVAADSGNAGIVNLLIQRGVSINSKTYHFLQTPLHLAAQRGFVTTFQRLMESPEININERDKDGFTPLHYAIRGGERILEAFLNQISIDVNAKSNTGLTPFHLAIIKNDWPVASTLLGSKKVDINAVDENNITALHYAAILGYLETTKQLINLKEINANVVSSPGLLSALHYAILYKHDDVASFLMRSSNVNVNLKALGGITPLHLAVIQGRKQILSLMFDIGVNIEQKTDEKYTPLHLAAMSKYPELIQILLDQGSNFEAKTNSGATPLHLATFKGKSQAALILLNNEVNWRDTDENGQMPIHGAAMTGLLDVAQAIISIDATVVDIEDKNSDTPLNLAAQNSHIDVIKYFIDQGADINTRNKKGLAPLLAFSKKGNLDMVKYLFDKNANVYIADNDGMNFFYYAVQNGHLNIVKYAMSEKDKFEWSNTDNNRRDECPNEECAISHFAVCDAVQFDRIEIVKYFVGTLGNFAICGPLHQAARYGHLDIVKYLVEEEFLSVDGSKTDTPLCYASENGHFTVVQYLVSNGAKVNHDCGNGMTAIDKAITKNHLQVVQFLAANGVDFRRKNSRGTTPFLTAVAENALHIAEYLIREKRQDININEQNVDKDTALHLAVYYKNLQMIKLLIKYGIDVTIRNAYDKTALDIAIDAKFSNIVEYLKTKSGKFRR
Q: With B1 as the molecule, how does the “LPS-induced IL-6 exocytosis” value (U937 human AML cells) read?
A: highly up-regulated

Q: And the “LPS-induced IL-6 exocytosis” value (THP-1 human AML cells)?
A: highly up-regulated

Q: What about the IL-6 exocytosis [3, 4] of the same molecule?
A: significantly up-regulated

Q: What about the IL-6 release [3, 5] of the same molecule?
A: did not influence

Q: What about the mTOR activation (mTOR; [4]) of the same molecule?
A: significantly up-regulated

Q: And the mTOR activation (mTOR; [5])?
A: did not influence
